Assay results from IntAct's records for PubMed 25946333.

B1: Nuclear envelope integral membrane protein 1 (Mus musculus), Q6ZQE4 (parent)
chain: MAGGIKVSVWSAVGPGPRCWGAGGGGGATWLLLVVAGCVVCGSADVNVVMLQESQVDMNSSQQFCYKNVLIPKWHDIWTRIQVRVNSSKLVRVTQVDNEEKLKELEQFSIWNFFSSFLKEKLNDTYVNVGLYSTKTCLKVEMIEKDTTYSVTVTRRFDPKLFLVFLLGLTLFFCGDLLSRSQIFYYSTGMSVGIVASLLIVIFMISKFMPKRSPIYVILVGGWSFSLYLIQLVFKNLQEIWRSYWHYLLSYILTVGFMSFAVCYKYGPLENERSINLLTWTLQLLGLGLMYSSIQIPHVAFALIVIALCTKNLEYPIHWLCSTYRRMCKASGKPVPPRLLTEEEYRIQGEVETQKALQELREFCNSPECSAWKTISRIQSPKRFADFVEGSFHLTPNEVSVHEQEYGLGSIFTQDEELSSEEEGSEYPTFTQNNFLT

Variants of: B1
Conditions: with ran_mouse Ran

Row | Variant | effect of a mutation on the interaction
1 | S366A;S376A;S380A;S419A;S420A | disrupting interaction strength
2 | S366E;S376E;S380E;S419E;S420E | disrupting interaction strength
